From the supplement of paper PMC9170038

Tested on: MS2 coat protein
Assay: apparent KD of MS2 coat protein; designed switch direction (-1 OFF switch, 1 ON switch): -1; higher = weaker reporter binding
Outline: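 Designed RNA switches were transcribed on Illumina chips by stalled E. coli RNA polymerase and titrated with SNAP-549-labelled MS2 coat protein from 0.7 or 1.5 nM, doubling to 3 µM. Step length ran from 0.8–1.5 h at the lowest concentration to 10–20 min at the highest. The apparent KD is the median over clusters for each design, from curve-fitted normalised cluster fluorescence.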

[1] = Eterna round: R95, input ligand: FMN 200 uM
[2] = Eterna round: R95, input ligand: microRNA oligo, concentration not stated
[3] = Eterna round: R95, input ligand: none
[4] = input ligand: microRNA oligo, concentration not stated

Row | Sequence | apparent KD of MS2 coat protein (input ligand: FMN 200 uM) | apparent KD of MS2 coat protein (input ligand: none) | apparent KD of MS2 coat protein [2] | further results
1 | ACCUCACAUGAGGAUCACCCAUGUCAGGAUAUCUUUUAAAACGCGAAUCGCGUCGCUGAGAGAAGGGACAUUAA [EX1 #21] (Eterna round: R97, puzzle: Exclusion 1) | 99.6 nM | 39.1 nM | – | –
2 | ACCUCACAUGAGGAUCACCCAUGUCAGGAUAUGUACCUAGCCAAAACAAAGGCCAGAAGCAGAAGGGACUGCGG [Ralerezara] (puzzle: Exclusion 1) | – | – | 53.4 nM | apparent KD of MS2 coat protein [1]: 24.1 nM; apparent KD of MS2 coat protein [3]: 44.6 nM
3 | ACCUCACAUGAGGAUCACCCAUGUUAGGAUAUCUCGACACUCCGCGGGCGGUAGCGUCAGAGAAGGAACGUGCU [Iszaxeza] (puzzle: Exclusion 1) | – | – | 23.1 nM | –
4 | ACCUCACAUGAGGAUCACCCAUGUUAGGAUAUCUCGGCGCCCUGUAGGCAGUAGCGCCAGAGAAGGAACGUGCA [Gearorso] (puzzle: Exclusion 1) | – | – | 19.8 nM | –
5 | ACCUCACUUGAGGAUCACCCAAGUCAGGAUAUACUCGUUUGCCGCACGACGCGGCAUUGUAGAAGGGACGGGUU [Arveatat] (Eterna round: R97, puzzle: Exclusion 1) | 35.1 nM | 17.9 nM | – | –
6 | ACCUCUGCUGAGGAUAUCCUUGCGGAAGAAGGAGGAGAAGGCAGAACAUGAGGAUCACCCAUGUGGGAACAACG [Eternabot (Original) Solution 37] (Eterna round: R97, puzzle: Exclusion 6) | 182 nM | 83.8 nM | – | –
7 | ACCUUACAUGAGGAUCACCCAUGUCAGGAUAUCUCGGGCGGCUGAGGACCAGCCACCCAGAGAAGGGACGAGGA [Qumaraanan] (puzzle: Exclusion 1) | – | – | 11.9 nM | apparent KD of MS2 coat protein [1]: 15 nM; apparent KD of MS2 coat protein [3]: 15.7 nM
8 | ACCUUACAUGAGGAUCACCCAUGUCAGGAUAUCUCGGGCGGCUGAGGACCAGCCGCCCAGAGAAGGGACGAGGA [Leleusarra] (puzzle: Exclusion 1) | – | – | 12.5 nM | –
9 | ACGAUGACCGAAAAGUGUCAACUGACAUGAGGAUCACCCAUGUAGGAUAUGGCUACGAAAAGUAGUCAGAAGGACAUGUCAUCA [Omei Exc(NG) 3 Av6] (Eterna round: R96, puzzle: Exclusion NG 3) | 17.6 nM | 15.4 nM | – | apparent KD of MS2 coat protein [4]: 10.5 nM
10 | ACGCAUUGCCAAAGGUAAUGCGUUACAUGAGGAUCACCCAUGUAGGAUAUGGUAGGCAAAGCUUACCAGAAGGACAUGAUAAUU [Mat - Exclusion NG 3 - Mod of JL - D7] (Eterna round: R96, puzzle: Exclusion NG 3) | 219 nM | 57 nM | – | apparent KD of MS2 coat protein [4]: 40 nM
11 | ACGCGUGAAGGAUAUACGCGGGCCCAAGCGGAUCACACCGCACAUGAGGAUCACCCAUGUAGAAGGUCGCAAAA [r4x2dt3] (Eterna round: R97, puzzle: Exclusion 2) | 33.4 nM | 13.9 nM | – | –
12 | ACGCUGUGAGGAUAUACAUGAGGAUCACCCAUGUUAAGGAAGUCUUGGUUAAUUUGGAGUAGAAGGCGCUUAUU [JR_Ex3_Sub016] (Eterna round: R97, puzzle: Exclusion 3) | 31.5 nM | 34.9 nM | – | –
13 | ACGUUUUUUGAGGAUAUGCGAUAGUUUUAUAUCGUAGAAGGCGAUACAUGAGGAUCACCCAUGUUUAUGGGCAU [LRO-Ex6-20] (puzzle: Exclusion 6) | – | – | 155 nM | –
14 | ACUAAUUGAGGAUAUACAUUGAUUUACAUGAGGAUCACCCAUGUUCAAACAUGUAUUUAUGUAGAAGGCAGAAGAA [JR_Ex5_Sub065] (Eterna round: R97, puzzle: Exclusion 5) | 23 nM | 17.5 nM | – | –
15 | ACUAGAUGAGGAUAUGCAUAUUUUCGUGUUCUUCUAGGUUAACAUGAGGAUCACCCAUGUAGAAGGCGUCUAUA [Exclusion 2 - 22] (puzzle: Exclusion 2) | – | – | 21.3 nM | –
16 | ACUAGCUUUUUGCAUAUUAGGUUUGUUGCUUCGUAUGUAACAUGAGGAUCACCCAUGUAUUACUGAUGUCGUCGUUU [JR_SV3TOV2_Sub091] (puzzle: Sensor v3, turn-off variant 2) | – | – | 17.3 nM | apparent KD of MS2 coat protein [1]: 20 nM; apparent KD of MS2 coat protein [3]: 16.9 nM
17 | ACUAGGCGAGGAUAUACAUGCUUAACACAGCGAAAGCUGUGACAUGAGGAUCACCCAUGUAGAAGGCGCAAAUA [Enlaedondi] (puzzle: Exclusion 2) | – | – | 43.2 nM | –

Row | Sequence | apparent KD of MS2 coat protein (input ligand: FMN 200 uM) | apparent KD of MS2 coat protein (input ligand: none) | apparent KD of MS2 coat protein [2] | further results
18 | ACUCAAUAGUAGGAUAUCAUCAAACUAUUGUGAUGAGAAGGACUAACAUGAGGAUCACCCAUGUUAACGUGAAG [Mod of Brourd 4 - Jieux - Exclusion 6] (Eterna round: R97, puzzle: Exclusion 6) | 23 nM | 20.3 nM | – | –
19 | ACUCCCAUCGUGAGGAUAUUGAAGCGGGAAGCCGGCAAGAAGGUACAUGAGGAUCACCCAUGUGUGAACAGGAC [Eternabot (L1) Solution 48] (Eterna round: R97, puzzle: Brourd's mod of Exclusion 4) | 14.5 nM | 14.9 nM | – | –
20 | ACUCGAGAAGGAUAUACAUGAGGAUCACCCAUGUUAACUCCCAAGGGCAUCUUAAAAGGUAGAAGGUCUUGAAA [Laonbeus] (puzzle: Exclusion 3) | – | – | 14 nM | apparent KD of MS2 coat protein [1]: 23.7 nM; apparent KD of MS2 coat protein [3]: 14.1 nM
21 | ACUCUACAUGAGGAUCACCCAUGUGAGGAUAUCAAAGCCAGAGCGGAUCUCUGGUCCAUGAGAAGGUGCAUGGU [ElNandoxlusion 3 - Jieux - Exclusion 1] (Eterna round: R97, puzzle: Exclusion 1) | 73.4 nM | 22.3 nM | – | –
22 | ACUUACUGAGGAUAUACAUAGAUUUACAUGAGGAUCACCCAUGUUCCUCUAAGUAUAUAUGUAGAAGGCAGAAGAU [Mat - Exclusion 5 - JL Mod - D39] (Eterna round: R97, puzzle: Exclusion 5) | 202 nM | 116 nM | – | –
23 | ACUUACUGAGGAUAUACAUAGAUUUACAUGAGGAUCACCCAUGUUCCUCUAAGUAUAUAUGUAGAAGGCAGAAGGG [Mat - Exclusion 5 - JL Mod - D41] (Eterna round: R97, puzzle: Exclusion 5) | 55.6 nM | 166 nM | – | –
24 | ACUUAUAGAGGAUAUACAGAUUAUUACAUGAGGAUCACCCAUGUUCUUCAAUGUAUAUAUGUAGAAGGCUAAGGAA [JL-ex5-4.23 Malcolm mod] (Eterna round: R97, puzzle: Exclusion 5) | 381 nM | 82.2 nM | – | –
25 | ACUUAUAGAGGAUAUACAGUUUAUUACAUGAGGAUCACCCAUGUUCUUCAAUGUAUAUAAGUAGAAGGCUAAGGAA [EX-5 Malc#5] (Eterna round: R96, puzzle: Exclusion 5) | – | – | – | apparent KD of MS2 coat protein [4]: 33.7 nM
26 | ACUUAUAGAGGAUAUACAGUUUAUUACAUGAGGAUCACCCAUGUUCUUCAAUGUAUAUAAGUAGAAGGCUAAGGAA [EX-5 Malc#5] (puzzle: Exclusion 5) | – | – | 25.2 nM | apparent KD of MS2 coat protein [1]: 132 nM; apparent KD of MS2 coat protein [3]: 30 nM
27 | ACUUAUUGAGGAUAUACAGAUUAUUACAUGAGGAUCACCCAUGUUCUUCAAUGUAUAUAUGUAGAAGGCAGAAGUA [Mat - Exclusion 5 - JL Mod - D14] (Eterna round: R97, puzzle: Exclusion 5) | 317 nM | 88.9 nM | – | –
28 | ACUUAUUGAGGAUAUACAUAAAUUUACAUGAGGAUCACCCAUGUUCUUCUAUGUAUAUAUGUAGAAGGCAGAAGAA [JL-ex5-4.31 Malcolm mod] (Eterna round: R97, puzzle: Exclusion 5) | 27 nM | 18.5 nM | – | –
29 | ACUUAUUGAGGAUAUACAUAGAUUUACAUGAGGAUCACCCAUGUUCCUCUAUGUAUAUAUGUAGAAGGCAGAAGAA [JL-ex5-4.32 Malcolm mod] (Eterna round: R97, puzzle: Exclusion 5) | 26.7 nM | 15.7 nM | – | –
30 | ACUUAUUGAGGAUAUACAUUAAAUUACAUGAGGAUCACCCAUGUUCUUCAAUGUAUAUAUGCAGAAGGCAGAAGAA [JL-ex5-4.28 Malcolm mod] (Eterna round: R97, puzzle: Exclusion 5) | 13.4 nM | 12.8 nM | – | –
31 | ACUUGUUGUCCUUGAUAUUACAUGAGGAUCACCCAUGUUAUUGUGAUUAUGAUGUGUAAGUUUGUUGCUCGUCUUAU [JR_STOV1_Sub065] (Eterna round: R97, puzzle: Sensor, turn-off variant 1) | 54.3 nM | 60.4 nM | – | –
32 | AGAAAGGAAGGAUAUACAAGAAAGCUGGGCAACGUCUCAGAACAUGAGGAUCACCCAUGUAGAAGGUCCAGGAA [Bienqura] (puzzle: Exclusion 2) | – | – | 22.6 nM | –
33 | AGAAAGUCAGGAUAUCGAAGGUAGUGGAGAGGAGUGUGGUACGAGAAGGGACAUGAGGAUCACCCAUGUAGGAG [JR_Exclusion4)Sub007] (puzzle: Exclusion 4) | – | – | 31.1 nM | –
